Laboratory results taken from the nanobody polyreactivity screen of Harvey et al. (2022).

Assay: yeast display, Sf9 membrane polyspecificity reagent, FACS + sequencing; frameworks hold sequencing errors
How it was run: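 Polyreactivity labels are assigned by the sorting gate from which each nanobody was recovered. The gates were low and high (top ~1%), set on anti-HA fluorescence for expression and streptavidin fluorescence for reagent binding. Before sorting, galactose-induced (36–48 hours) yeast display cells were stained for 1 hour at 4 °C with 10% biotinylated, detergent-solubilized Sf9 membrane reagent.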

Sequence	polyreactivity (PSR sort gate)
QVQLVESGGGLVQPGGSLLLRGAASGSIYYRNVMGWYRPAPGKERELVAAISSGGNTYYADSVKGRFTISRDNAKNTVYLQMNSLKPVDTAVYYCNAEYEGLSFGWYEYWYDYWGQGTQVTVSS	high polyreactivity
QVQLVESGGGLVQAGGSLRLSCAASGFTFDNYVMGWYRQAPGKERELVAAISKSGTSTYYADSVKGRFTISRDNAKNTVYLQMNSLKPEDTAVSYCAARQYSQEPYDYWGQGTQVTVSS	high polyreactivity
QVQLVESGGGLVQAGGSLRLSCASSGSILYVYAMGWYRQAPGKERELVAAISTSGVSTYYADSVKGRFTISRDNAKNTVYLQMNSLKPEDTAVYYCAATVSRGFYSWWYDYWGQGTQVTVSS	low polyreactivity
QVQLVESGGGLVQAGGSLRLSCAASGFTFNYYAMGLYRQAPGKERELVARITSGGSTYYADSVKGRFTISRDNAKNTVYLQMNSLKPEDTAVYYCNVDVSVEVAYWGQGTQVTVSS	low polyreactivity
QVQLVETGGVLVQAGGSLRLSCAASGSIFQQNAMGGYRQAPGKERELVASISSGGRTNYADSVKGRCTISRDNAKNTVYLQMNSLKPEDTAVYYCAKTRIRYKPLHFYYWGQGTQVTVSS	low polyreactivity
QVQLVESGGGLVQAGGSLRLSCAPSGRIFYGYAMGWYRQAPGKEREFVARINVSGTSTFYADSVKGRFTISRDNAKNTVYLQMNSLKPEDTAVYYCAARGLPSNYYYYVHGYIMDYWGQGTHVTVSS	low polyreactivity
QVQLVESGGGLVQAGGSLRLSCAASGSIFGRNAMGWYRQAPGKERELVAVITSTGGSTYYADSVKGRFTISRDNAKNTVYLQMNSLKPEDTAVYYCAARTRYRYGYWGQGTQVTVSS	high polyreactivity
QVQLVESGGGLVQAGGSLRLSCAASGSTFSYYGMGSYRTAPGKERELVDAIDYSGDSTYDADSVKGRFTISRDNAKNTVYLQMNSLKPEDTAVYYCAADDYPWNRYAYWGQGTQVPVSS	low polyreactivity
QVQLVESGGGLVQAGGSLRLSCAASGFIFYGYTMGWYRQAPGKERELVARISRRGGSTYYADSVKGRFTISRDNAKNTVYLQMNSLKPEDTAVYYCAAELRRLFYAYGYWGQGTQVTVSS	low polyreactivity
QVQLVEKGGGLVQAGGSLRLSCAASGYIFRFYTKRWYRQAPGKERELVASITRSGGSTYYADSVKGRFTFSRENAKNTVYLQKNSLKPEDTAVYYCNARKTVGMDYWGQGTQVTVSS	low polyreactivity
QVQLVESGGGLVQAGGSLRLSCAASGRIFVYNAMGWYRQAPGKERELVATITSGGSTYYADSVKGRFTISRDNAKNTVYLQMNSLKPEDTAVYYCAARRWYVHYFAYGYWGQRTQVTVSS	low polyreactivity
QVQLVESGGGLVQAGGSLRLSCAASGRIFYRYAMGWYSQAPGKESELVAAITWRGGSTSYPDSVKGRFTISRDNAKNTVYLQMNSLKPEATAVYYCAAAAYGVPWRSYLGVFKSHMDYWGQGTQVTVSS	high polyreactivity
QVQLVESGGGLVQAGCSLRLSCAASGFIFTTYAMGWYRQEPGKERELVAAISGRGGTTYYADSVKGRFTISLDTAKNTVYLQMNSLKPEDTAVYYCAADGYPGDDYWGQGTQVTVSS	high polyreactivity
QVQLVESGGGLVQAGGSLRLSCAASGITFQYYAMGWYRQAPGKERELVAAISSGGSTYYADSVKGRFTISRDNAKNTVYLQMNSLKPEDTAVYYCAAKRVFFGLNYDYWGQGTQVTVSS	high polyreactivity
QVQLVESGGGRVQAGGRIRLRCAASGLIFPGYDMGWYSPAPGKERELVAAISDSGANTYYADSVKGRFTISRDNAKNTVYLQMTSLKQEDTAVYYCAADSSWWYGTSFGRFDYWGQGTQVTVSS	low polyreactivity
QVQLVESCGGLVQAGGSHRLSCAASGFTFTRNALGWYRQAPGKERELVAAISIRGSSTYYADSVKGRFTISRDNAKNTVYLQMNILKQEDTAVYYCSAPTFSLHGTYGYWGQGTQVTVSS	high polyreactivity
QVQLVESGGGLVQAGGSLRLSCAASGLTFVAYAMGWYRQAPGKERELVAAITRRGGSTYYADSVTGRFTISRDNAKNTVYLQMNSLKPEDTAVYYCAAEGSYSRNPGFDYWGQGTQVTVSS	high polyreactivity
QVQLVESGGGLVQAGGSLRLSCAASGSTFVWYAMGWYRQAPGKERELVAVINWSAGRTYYADSVKGRFTFSRDTAKNTVYLQMNSLKPEDTAVYYCATRTYYRSRTVGWGKMDYWGQGTQVTVSS	high polyreactivity
QVQLVESGGGLVQAGGSLRLSCAASGSTFWWNTMGWYRQAPWKERELVADIRTSGGGTYYADSVKGRFTISRDNAKNTVYLQMNSLKPEDTAVYYCNADPKWEMGSWGQGTQVTVSS	low polyreactivity
QVQLVESGGGLVHAGGSLRLSCAASGIIFVLHAMGWYRQAPGQERELVASISGIGGSTYYADSEKGRFTISRDNAKNTVYLQMNSLKPEDTAVYYCAARGWLSRYGYWGHGTQVTVSS	high polyreactivity
QVQLVESGGGLVQAGGSLRLSCAASGRIFTAYAMGWYRQAPGKERELVAAISSGDSTYYADSVKGRFTISRDNAKNTVSLQMNSLKPEDTAVYYCATGVYPDFEYDSWGQGTQVTVSS	low polyreactivity
QVQLVESGGGLVQAGGSLRLSCAASGFNFSYYAMGWYRHAPGKEWELVAAISRSGGSTYYADSVKGRFTISRDNAKNTVYLQMNSLKPEDTAVYYCAKRIKDRSGEAYVGLYYWGQGTQVTVSS	high polyreactivity

Sequence	polyreactivity (PSR sort gate)
QVQLVESGGGLVQAGGSLRLSCAASGSTFAYYAMGWYRQAPGKERELVAAISWRGGSTYYADSVKGRFTISRDNAKNTVYLLMNILKPEVTAVYYCAAARDRWGNYWGQGTQVTVSS	high polyreactivity
QVQLVESGGGLVQAGGSLRLSCAASGSTFPGNAMGWYRQAPGNERELVAAIRWSGGRTYYADSVKGRFTISRDNAKNTVYLQMNSLKPEDTAVYYCAARLRKHGYGYWGQGTQVTVSS	low polyreactivity
QVQLVESGGGLVQAGGSLRLSCAASGFIFNQYAMGWYRQAPGKERELVAAIRGSGGRTYYADSVKGRFTISRDNAKNTVYFQMNSLKPEDTAVYYCAKQRFGYRRSPGDYWGQGTQVTVSS	high polyreactivity
QVQLVESGGGLVQAGGSLRLSCAASGITFTFNAMGWYRQAPGKERELVAAITWSGGSTFYADSVKGRFTISRDNAKNTVDLQMNSLKPEDTAVYYCARDTELYVRWLDYWGQGTQVTVSS	low polyreactivity
QVQLVESGGGLVQAGGSLRLSCAASGSTFYYYTMGCYRQAPGKEREFVAAITRSGGSTYYADSVKGRFTISRDNAKNTVYLQMNSLKPEDTAVYYCAATRQRVKSEYWGQGTQVTVSS	low polyreactivity
QVQLVESGGGLVQAGGSLRLSCAASGSIFNLYAMGWYRQAPGKERELVAAINWSGGSTYYADSVKGRFTISRDNAKNTVYLQMNSLKPEDTAVYYCAADAYSTYYGYEGDYWGQGTQVTVSS	low polyreactivity
QVQLVESGGGLVQAGGSLRLSCAASGRTFRPNAMRWYRQAPGKERELVASITRRGGTTYYADSVKGRFTISRDNAKNTVYLQMNSLKPEDTAVYYCNAPPGYSSTRNGYWGQGTQVTVSS	high polyreactivity
QVQLVESGGGLVQAGGSLRLSCAASGSIFFIYAMGWYRQAPGKERELVAAINDGGGSTYYADSVKGRFTISRDNAKNTVYLLMNSLKPEDTAVYYCAAEWSWGPYRYDYWGQGTQVTVSS	high polyreactivity
QVQLVESGGGLVQAGGSLRLSCAASGFTFYTYTMGWYRQAPGKERELVAVISRSGGSTYYADSVKGRFTISRDNAKNTVYLQMNSLKPEDTAVYYCNKVGIYGSRSRYDSWGQGTQVTVSS	high polyreactivity
QVQLVESGGGLVQAGGSLRLSCAASGRIFGYYAMGWYRQAPGKERELVAAISDGGSTDYADSVKGRFTISRDNAKNTVYLQMNSLKPEDTAVYYCNADRLYLYNVEYDYWGQGTQVTVSS	low polyreactivity
QVQLVESGGGLVQAGGSLRLSCAASGRIFQGYAMGWYRQAPRKERELVASITVRGGTTYYADSVKGRFTISRDHAKNTVYLQMISLKPEDTAVYYCNAAKLIHGYQSVYPGSNSRYYYWGQGTQVTVSS	low polyreactivity
QVQLVESGGGLVQAGGSLRLSCAASGITFRSYAMGWYRQAPGKERELVAAIRSGGSTSYADSVKGRFTISRDNAKTTVYLQMNSLKPEDTAVYYCAAGGYVPLPDITFWKFGYWGQGTQVTVSS	low polyreactivity
QVQLVESGGGLVQAGGSLRLSCAASGFTIWPYAMGWYRQAPGKERELVAGITRNGGSTYYADSVKGRFTISRDIAKNTVYLQMNSLKPEDTAVYYCNTKYAVEFDYWGQGTQVTVSS	low polyreactivity
QVQLVESGGGLVQAGGSLRLSCAASGSTFAINAMGWYRQAPGKERELVAAISSSGSTNYADSVKGRFTISRDNAKNTVYLQMNSLKPEVTAVYYCAADRVWGTPQAYVPSQFDYWGQGTQVTVSS	low polyreactivity
QVQLVESGGGLVQAGGSLRLSCAASGRIFTYDAMGWYRPAPGKERELLATITSGGSTNYADSVKGRFTISRDNAMNTVYLQMNSLKPEDTAVDYCATRKYRVPRSYYWGQGTQVTVSS	high polyreactivity
QVQLQESGGGLVQAGGSLRLSCAASGSISPYYDMGWYRQAPGKEREFVAGISGGAITYYADSVKGRFTISRDNAKNTVYLQMNSLKPEDTAVYYFAADTGVYQYHSYWGQGTQVTVSS	low polyreactivity
QVQLVESGGGLVQAGGSLRLSCAASGRTFSGYAMGWYRQAPGKERELVASITYSGGSTYYADSVKGRFTISRDNAKNTVYLQMNSLKPEDTAVYYCNARSSGKGRSNAYYKGHGYWGQGTQVTVSS	high polyreactivity
QVQLVESGGGLVQAGGSLRLSCAASGSTFRHYAMGWYRQAPGKERELVAAISSTGGSTYYADSVKGRFTISRDNAKNTVYLQMNSLKPEDTAVYYCAARRLYWGQGTQVTVSS	high polyreactivity
QVQLVESGGGLVQAGGSLRLSCAASGRIFVYYAMGWNRQAPGKERELVAAISSSGGSTYYADSVKGRFTISRDNAKNTVYLQMNSLKPEDTAVYYCNAVTSVQARPRNYYYWGQGTQVTVSS	high polyreactivity
QVQLVESGGGLVQAGGSLRLSCAASGSIFKYYAMGGYRQAPGTERELVAAITQRGGSTYYADSVKGRFTISRDNAKNTGYLQMNRLNPEDTAVYYCNRYSLTAWYYRHGYYYWGQGTQVTVSS	high polyreactivity
QVQLVESWGGLVQAGGSLRLSCAASGSTFVINAMGWYSQAPGKERELVAAITWGGGRTYYADSVKGRFTISRDNAKNTVYLQMNSLKPEDTAVYYCAAVGSGWKGDYWGQGTQVTVSS	low polyreactivity
